{"source": "paper PMC11574045", "about": "“A cofactor-induced repressive type of transcription factor condensation can be induced by synthetic peptides to suppress tumorigenesis” (The EMBO Journal, 2024)", "molecules": {"B1": {"name": "RFXANK (protein)", "chain": "MELTQPAEDLIQTQQTPASELGDPEDPGEEAADGSDTVVLSLFPCTPEPVNPEPDASVSSPQAGSSLKHSTTLTNRQRGNEVSALPATLDSLSIHQLAAQGELDQLKEHLRKGDNLVNKPDERGFTPLIWASAFGEIETVRFLLEWGADPHILAKERESALSLASTGGYTDIVGLLLERDVDINIYDWNGGTPLLYAVRGNHVKCVEALLARGADLTTEADSGYTPMDLAVALGYRKVQQVIENHILKLFQSNLVPADPE"}}, "key": {"[1]": {"test_system": "GFP-TEAD4 condensates in HEK293FT cells", "experiment": "GFP-TEAD4 condensate imaging, condensed fraction in cells", "format": "cell-based", "conditions": "Figure 2D source data, GFP-TEAD4 condensates with co-expressed cofactor, with or without 1,6-Hex, single measurement"}, "GFP-TEAD4 condensates": {"test_system": "GFP-TEAD4 condensates", "experiment": "siRNA screening based on TEAD4 condensate", "format": "cell-based", "conditions": "Figure 2B source data; siRNA against the named gene; Z score based analysis", "procedure": "siRNA reagents were obtained from the Dharmacon Human ON-TARGETplus siRNA Smartpool Library (Thermo) as described previously (Tang et al, [2020]). […] Lipofectamine RNAiMAX reagent (Thermo) at a volume of 0.05 μl per well was then added to the siRNA-loaded plates. Subsequently, cells expressing GFP-TEAD4 were seeded into the plate at 2000 cells per well. After subsequent transfection for 48 h, the cells were fixed with 4% PFA at room temperature for 30 min. DAPI was used to identify individual nuclei. The plates were kept at 4 °C in the dark before being analyzed using the Opera system. Twenty focus fields per well were scanned and analyzed. Scrambled siRNA was used as an internal reference on each plate."}, "HGC-27 cells": {"test_system": "HGC-27 cells", "experiment": "siRNA screening based on cell growth", "design": "species or system human", "conditions": "Figure 2B source data; siRNA against the named gene; Z score based analysis", "procedure": "For screening based on cell growth, HGC-27 cells (2000 per well) were seeded into a 96-well plate overnight. The individual siRNAs targeting 192 BioID-identified genes were then added into each well to a final concentration of 25 nM. After subsequent incubation for 48 h, the cells were analyzed using an ATP-based CellCounting-Lite^TM 2.0 reagent (Vazyme, Nanjing, China) according to the manufacturer’s instructions. The intracellular ATP contents were measured using an EnSight™ Multimode Microplate Reader (Perkin Elmer)."}}, "data": [{"molecule": "B1", "values": [{"measurement": "Condensed fraction", "setting": "[1]; replicate 1 of 9", "result": 37.5428, "unit": "%"}, {"measurement": "Condensed fraction", "setting": "[1]; replicate 2 of 9", "result": 33.3337, "unit": "%"}, {"measurement": "Condensed fraction", "setting": "[1]; replicate 3 of 9", "result": 44.4467, "unit": "%"}, {"measurement": "Condensed fraction", "setting": "[1]; replicate 4 of 9", "result": 47.0652, "unit": "%"}, {"measurement": "Condensed fraction", "setting": "[1]; replicate 5 of 9", "result": 51.3041, "unit": "%"}, {"measurement": "Condensed fraction", "setting": "[1]; replicate 6 of 9", "result": 37.5405, "unit": "%"}, {"measurement": "Condensed fraction", "setting": "[1]; replicate 7 of 9", "result": 26.519, "unit": "%"}, {"measurement": "Condensed fraction", "setting": "[1]; replicate 8 of 9", "result": 36.7045, "unit": "%"}, {"measurement": "Condensed fraction", "setting": "[1]; replicate 9 of 9", "result": 37.5001, "unit": "%"}, {"measurement": "Z score of condensed fraction", "setting": "GFP-TEAD4 condensates", "result": -3.941}, {"measurement": "Z score of cell growth", "setting": "HGC-27 cells", "result": 3.094}]}]}
